Results from patent US20230395193A1 (priority 2020, published 2023).

System: SARS-CoV-1, MERS-CoV and SARS-CoV-2 proteins in HEK293T cells
Design: species or system human

| Molecule | MIST_MERS | MIST_SARS1 | MIST_SARS2 | Saint_MERS | Saint_SARS1 | Saint_SARS2 |
| --- | --- | --- | --- | --- | --- | --- |
| E-Q6UX04 (protein, UniProt Q6UX04 2-472, looked up, interactor of E protein) Spliceosome-associated …: SNIYIQEPPTNGKVLLKTTAGDIDIELWSKEAPKACRNFIQLCLEAYYDNTIFHRVVPGFIVQGGDPTGTGSGGESIYGAPFKDEFHSRLRFNRRGLVAMANAGSHDNGSQFFFTLGRADELNNKHTIFGKVTGDTVYNMLRLSEVDIDDDERPHNPHKIKSCEVLFNPFDDIIPREIKRLKKEKPEEEVKKLKPKGTKNFSLLSFGEEAEEEEEEVNRVSQSMKGKSKSSHDLLKDDPHLSSVPVVESEKGDAPDLVDDGEDESAEHDEYIDGDEKNLMRERIAKKLKKDTSANVKSAGEGEVEKKSVSRSEELRKEARQLKRELLAAKQKKVENAAKQAEKRSEEEEAPPDGAVAEYRREKQKYEALRKQQSKKGTSREDQTLALLNQFKSKLTQAIAETPENDIPETEVEDDEGWMSHVLQFEDKSRKVKDASMQDSDTFEIYDPRNPVNKRRREESKKLMREKKERR | 0.03892 | 0.6535 | 0.8931 | 0 | 0.98 | 0.66 |
| M-Q9ULX6 (protein, UniProt Q9ULX6 1-646, looked up) A-kinase anchor protein 8-like: MSYTGFVQGSETTLQSTYSDTSAQPTCDYGYGTWNSGTNRGYEGYGYGYGYGQDNTTNYGYGMATSHSWEMPSSDTNANTSASGSASADSVLSRINQRLDMVPHLETDMMQGGVYGSGGERYDSYESCDSRAVLSERDLYRSGYDYSELDPEMEMAYEGQYDAYRDQFRMRGNDTFGPRAQGWARDARSGRPMASGYGRMWEDPMGARGQCMSGASRLPSLFSQNIIPEYGMFQGMRGGGAFPGGSRFGFGFGNGMKQMRRTWKTWTTADFRTKKKKRKQGGSPDEPDSKATRTDCSDNSDSDNDEGTEGEATEGLEGTEAVEKGSRVDGEDEEGKEDGREEGKEDPEKGALTTQDENGQTKRKLQAGKKSQDKQKKRQRDRMVERIQFVCSLCKYRTFYEDEMASHLDSKFHKEHFKYVGTKLPKQTADFLQEYVTNKTKKTEELRKTVEDLDGLIQQIYRDQDLTQEIAMEHFVKKVEAAHCAACDLFIPMQFGIIQKHLKTMDHNRNRRLMMEQSKKSSLMVARSILNNKLISKKLERYLKGENPFTDSPEEEKEQEEAEGGALDEGAQGEAAGISEGAEGVPAQPPVPPEPAPGAVSPPPPPPPEEEEEGAVPLLGGALQRQIRGIPGLDVEDDEEGGGGAP | 0 | 0.34 | 0.752 | 0 | 0.98 | 1 |
| E-Q8IWA5 (protein, UniProt Q8IWA5 1-706, looked up) Choline transporter-like …: MGDERPHYYGKHGTPQKYDPTFKGPIYNRGCTDIICCVFLLLAIVGYVAVGIIAWTHGDPRKVIYPTDSRGEFCGQKGTKNENKPYLFYFNIVKCASPLVLLEFQCPTPQICVEKCPDRYLTYLNARSSRDFEYYKQFCVPGFKNNKGVAEVLQDGDCPAVLIPSKPLARRCFPAIHAYKGVLMVGNETTYEDGHGSRKNITDLVEGAKKANGVLEARQLAMRIFEDYTVSWYWIIIGLVIAMAMSLLFIILLRFLAGIMVWVMIIMVILVLGYGIFHCYMEYSRLRGEAGSDVSLVDLGFQTDFRVYLHLRQTWLAFMIILSILEVIIILLLIFLRKRILIAIALIKEASRAVGYVMCSLLYPLVTFFLLCLCIAYWASTAVFLSTSNEAVYKIFDDSPCPFTAKTCNPETFPSSNESRQCPNARCQFAFYGGESGYHRALLGLQIFNAFMFFWLANFVLALGQVTLAGAFASYYWALRKPDDLPAFPLFSAFGRALRYHTGSLAFGALILAIVQIIRVILEYLDQRLKAAENKFAKCLMTCLKCCFWCLEKFIKFLNRNAYIMIAIYGTNFCTSARNAFFLLMRNIIRVAVLDKVTDFLFLLGKLLIVGSVGILAFFFFTHRIRIVQDTAPPLNYYWVPILTVIVGSYLIAHGFFSVYGMCVDTLFLCFLEDLERNDGSAERPYFMSSTLKKLLNKTNKKAAES | 0 | 0 | 0.9503 | 0 | 0 | 0.98 |
| E-Q9NPI6 (protein, UniProt Q9NPI6 1-582, looked up, interactor of SARS-CoV-2 E) mRNA-decapping enzyme 1A: MEALSRAGQEMSLAALKQHDPYITSIADLTGQVALYTFCPKANQWEKTDIEGTLFVYRRSASPYHGFTIVNRLNMHNLVEPVNKDLEFQLHEPFLLYRNASLSIYSIWFYDKNDCHRIAKLMADVVEEETRRSQQAARDKQSPSQANGCSDHRPIDILEMLSRAKDEYERNQMGDSNISSPGLQPSTQLSNLGSTETLEEMPSGSQDKSAPSGHKHLTVEELFGTSLPKEQPAVVGLDSEEMERLPGDASQKEPNSFLPFPFEQLGGAPQSETLGVPSAAHHSVQPEITTPVLITPASITQSNEKHAPTYTIPLSPVLSPTLPAEAPTAQVPPSLPRNSTMMQAVKTTPRQRSPLLNQPVPELSHASLIANQSPFRAPLNVTNTAGTSLPSVDLLQKLRLTPQHDQIQTQPLGKGAMVASFSPAAGQLATPESFIEPPSKTAAARVAASASLSNMVLAPLQSMQQNQDPEVFVQPKVLSSAIPVAGAPLVTATTTAVSSVLLAPSVFQQTVTRSSDLERKASSPSPLTIGTPESQRKPSIILSKSQLQDTLIHLIKNDSSFLSTLHEVYLQVLTKNKDNHNL | 0.9797 | 0 | 0 | 1 | 0 | 0 |
| E-Q6DD88 (protein, UniProt Q6DD88 1-541, looked up, interactor of SARS-CoV-2 E) Atlastin-3: MLSPQRVAAAASRGADDAMESSKPGPVQVVLVQKDQHSFELDEKALASILLQDHIRDLDVVVVSVAGAFRKGKSFILDFMLRYLYSQKESGHSNWLGDPEEPLTGFSWRGGSDPETTGIQIWSEVFTVEKPGGKKVAVVLMDTQGAFDSQSTVKDCATIFALSTMTSSVQIYNLSQNIQEDDLQQLQLFTEYGRLAMDEIFQKPFQTLMFLVRDWSFPYEYSYGLQGGMAFLDKRLQVKEHQHEEIQNVRNHIHSCFSDVTCFLLPHPGLQVATSPDFDGKLKDIAGEFKEQLQALIPYVLNPSKLMEKEINGSKVTCRGLLEYFKAYIKIYQGEDLPHPKSMLQATAEANNLAAAASAKDIYYNNMEEVCGGEKPYLSPDILEEKHCEFKQLALDHFKKTKKMGGKDFSFRYQQELEEEIKELYENFCKHNGSKNVFSTFRTPAVLFTGIVALYIASGLTGFIGLEVVAQLFNCMVGLLLIALLTWGYIRYSGQYRELGGAIDFGAAYVLEQASSHIGNSTQATVRDAVVGRPSMDKKAQ | 0.9832 | 0 | 0 | 1 | 0 | 0 |
| E-Q9BTV4 (protein, UniProt Q9BTV4 2-400, looked up) Transmembrane protein 43: AANYSSTSTRREHVKVKTSSQPGFLERLSETSGGMFVGLMAFLLSFYLIFTNEGRALKTATSLAEGLSLVVSPDSIHSVAPENEGRLVHIIGALRTSKLLSDPNYGVHLPAVKLRRHVEMYQWVETEESREYTEDGQVKKETRYSYNTEWRSEIINSKNFDREIGHKNPSAMAVESFMATAPFVQIGRFFLSSGLIDKVDNFKSLSLSKLEDPHVDIIRRGDFFYHSENPKYPEVGDLRVSFSYAGLSGDDPDLGPAHVVTVIARQRGDQLVPFSTKSGDTLLLLHHGDFSAEEVFHRELRSNSMKTWGLRAAGWMAMFMGLNLMTRILYTLVDWFPVFRDLVNIGLKAFAFCVATSLTLLTVAAGWLFYRPLWALLIAGLALVPILVARTRVPAKKLE | 0.8753 | 0 | 0 | 1 | 0 | 0 |
| E-Q8WY22 (protein, UniProt Q8WY22 1-251, looked up, prey of SARS-CoV-2 E) BRI3-binding protein: MGARASGGPLARAGLLLLLLLLLLLGLLAPGAQGARGRGGAEKNSYRRTVNTFSQSVSSLFGEDNVRAAQKFLARLTERFVLGVDMFVETLWKVWTELLDVLGLDVSNLSQYFSPASVSSSPARALLLVGVVLLAYWFLSLTLGFTFSVLHVVFGRFFWIVRVVLFSMSCVYILHKYEGEPENAVLPLCFVVAVYFMTGPMGFYWRSSPSGPSNPSNPSVEEKLEHLEKQVRLLNIRLNRVLESLDRSKDK | 0.9912 | 0 | 0 | 1 | 0 | 0 |
| M-Q9ULF5 (protein, UniProt Q9ULF5 26-831, looked up) Zinc transporter ZIP10: HEEHDHGPEALHRQHRGMTELEPSKFSKQAAENEKKYYIEKLFERYGENGRLSFFGLEKLLTNLGLGERKVVEINHEDLGHDHVSHLDILAVQEGKHFHSHNHQHSHNHLNSENQTVTSVSTKRNHKCDPEKETVEVSVKSDDKHMHDHNHRLRHHHRLHHHLDHNNTHHFHNDSITPSERGEPSNEPSTETNKTQEQSDVKLPKGKRKKKGRKSNENSEVITPGFPPNHDQGEQYEHNRVHKPDRVHNPGHSHVHLPERNGHDPGRGHQDLDPDNEGELRHTRKREAPHVKNNAIISLRKDLNEDDHHHECLNVTQLLKYYGHGANSPISTDLFTYLCPALLYQIDSRLCIEHFDKLLVEDINKDKNLVPEDEANIGASAWICGIISITVISLLSLLGVILVPIINQGCFKFLLTFLVALAVGTMSGDALLHLLPHSQGGHDHSHQHAHGHGHSHGHESNKFLEEYDAVLKGLVALGGIYLLFIIEHCIRMFKHYKQQRGKQKWFMKQNTEESTIGRKLSDHKLNNTPDSDWLQLKPLAGTDDSVVSEDRLNETELTDLEGQQESPPKNYLCIEEEKIIDHSHSDGLHTIHEHDLHAAAHNHHGENKTVLRKHNHQWHHKHSHHSHGPCHSGSDLKETGIANIAWMVIMGDGIHNFSDGLAIGAAFSAGLTGGISTSIAVFCHELPHELGDFAVLLKAGMTVKQAIVYNLLSAMMAYIGMLIGTAVGQYANNITLWIFAVTAGMFLYVALVDMLPEMLHGDGDNEEHGFCPVGQFILQNLGLLFGFAIMLVIALYEDKIVFDIQF | 0 | 0.7375 | 0 | 0 | 1 | 0 |
